Test results published in patent US20170342155A1 (Amgen, published 2017).

Tests used:
Assay in all cases: flow cytometry on transfected 293T cells, PE secondary antibody, geo mean
[1] = target: T1, human CCR7 variant F44Y (20100128285) (human, UniProt P32248 25-378)
T1 sequence: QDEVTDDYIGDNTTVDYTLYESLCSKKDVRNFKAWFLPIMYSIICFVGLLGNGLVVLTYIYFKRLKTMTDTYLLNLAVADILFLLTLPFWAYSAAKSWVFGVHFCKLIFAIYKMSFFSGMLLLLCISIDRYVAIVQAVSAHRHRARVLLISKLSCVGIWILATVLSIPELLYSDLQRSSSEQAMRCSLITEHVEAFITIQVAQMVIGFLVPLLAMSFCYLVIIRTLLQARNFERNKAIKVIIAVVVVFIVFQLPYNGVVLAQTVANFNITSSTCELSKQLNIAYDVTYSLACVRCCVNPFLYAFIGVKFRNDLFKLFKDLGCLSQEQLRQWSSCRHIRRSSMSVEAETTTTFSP

[2] = target: T2, human CCR7 variant D35E (20100122625) (human, UniProt P32248 25-378)
T2 construct: Human CCR7 with the murine residue at position 35; also called D35 variant
T2 sequence: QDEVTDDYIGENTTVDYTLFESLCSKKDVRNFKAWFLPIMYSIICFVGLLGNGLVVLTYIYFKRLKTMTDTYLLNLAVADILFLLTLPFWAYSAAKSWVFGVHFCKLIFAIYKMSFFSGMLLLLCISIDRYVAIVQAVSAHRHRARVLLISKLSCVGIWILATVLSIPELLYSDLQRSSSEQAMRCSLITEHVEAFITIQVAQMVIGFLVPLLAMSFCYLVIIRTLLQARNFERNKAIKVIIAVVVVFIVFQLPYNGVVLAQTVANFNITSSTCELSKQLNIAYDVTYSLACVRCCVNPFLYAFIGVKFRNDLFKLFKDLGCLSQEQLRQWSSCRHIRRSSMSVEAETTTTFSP

[3] = target: T3, human CCR7 variant S202N (20110009483) (human, UniProt P32248 25-378)
T3 sequence: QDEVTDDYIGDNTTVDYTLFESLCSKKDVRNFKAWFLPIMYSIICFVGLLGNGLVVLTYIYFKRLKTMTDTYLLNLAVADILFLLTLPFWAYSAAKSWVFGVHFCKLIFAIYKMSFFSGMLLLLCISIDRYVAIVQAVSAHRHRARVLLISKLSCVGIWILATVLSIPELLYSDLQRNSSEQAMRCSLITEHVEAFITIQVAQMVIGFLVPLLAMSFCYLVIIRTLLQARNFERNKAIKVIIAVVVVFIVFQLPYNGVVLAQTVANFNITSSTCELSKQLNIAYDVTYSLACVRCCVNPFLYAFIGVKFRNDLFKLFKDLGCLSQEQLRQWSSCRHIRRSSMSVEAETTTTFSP

[4] = target: T4, human CCR7 variant F128L (20100126472) (human, UniProt P32248 25-378)
T4 sequence: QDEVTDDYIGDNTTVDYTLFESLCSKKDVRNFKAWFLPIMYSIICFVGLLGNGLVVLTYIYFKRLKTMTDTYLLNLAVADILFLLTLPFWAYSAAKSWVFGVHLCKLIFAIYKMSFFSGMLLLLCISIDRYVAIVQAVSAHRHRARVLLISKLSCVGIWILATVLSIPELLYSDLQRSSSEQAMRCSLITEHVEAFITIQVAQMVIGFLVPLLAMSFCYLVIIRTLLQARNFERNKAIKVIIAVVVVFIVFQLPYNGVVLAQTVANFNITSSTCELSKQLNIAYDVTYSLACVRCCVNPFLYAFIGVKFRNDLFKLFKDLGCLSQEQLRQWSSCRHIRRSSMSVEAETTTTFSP

[5] = target: T5, human CCR7 variant A207T (20100171270) (human, UniProt P32248 25-378)
T5 sequence: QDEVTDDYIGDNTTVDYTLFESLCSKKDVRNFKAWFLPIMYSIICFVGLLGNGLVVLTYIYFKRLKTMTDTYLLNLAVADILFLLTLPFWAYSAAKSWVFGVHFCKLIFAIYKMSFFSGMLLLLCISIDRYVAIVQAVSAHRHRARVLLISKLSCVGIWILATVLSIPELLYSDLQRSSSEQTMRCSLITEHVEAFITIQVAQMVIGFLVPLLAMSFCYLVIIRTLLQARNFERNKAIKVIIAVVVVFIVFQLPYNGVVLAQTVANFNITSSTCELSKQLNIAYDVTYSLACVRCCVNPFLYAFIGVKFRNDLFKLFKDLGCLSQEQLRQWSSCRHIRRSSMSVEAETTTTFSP

[6] = target: T6, human CCR7 variant V123I (20100126473) (human, UniProt P32248 25-378)
T6 sequence: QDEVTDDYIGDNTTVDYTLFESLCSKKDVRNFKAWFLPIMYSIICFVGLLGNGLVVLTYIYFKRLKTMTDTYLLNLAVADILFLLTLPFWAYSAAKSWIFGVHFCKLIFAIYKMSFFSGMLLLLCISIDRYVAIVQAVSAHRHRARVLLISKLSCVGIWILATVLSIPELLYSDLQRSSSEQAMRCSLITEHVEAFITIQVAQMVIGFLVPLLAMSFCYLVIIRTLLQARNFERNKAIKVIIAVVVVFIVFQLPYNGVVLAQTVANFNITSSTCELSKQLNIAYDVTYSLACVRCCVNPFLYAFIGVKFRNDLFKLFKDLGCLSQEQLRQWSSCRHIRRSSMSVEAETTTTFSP

[7] = target: T7, murine CCR7 Y44F/V47L/K201R/N202S/G204S/T207A/L208M construct 20110105423 (mouse, UniProt P47774 25-378)
T7 construct: Murine CCR7 with seven human residues; also called YVKNGTL; construct YVKNGTL
T7 chain: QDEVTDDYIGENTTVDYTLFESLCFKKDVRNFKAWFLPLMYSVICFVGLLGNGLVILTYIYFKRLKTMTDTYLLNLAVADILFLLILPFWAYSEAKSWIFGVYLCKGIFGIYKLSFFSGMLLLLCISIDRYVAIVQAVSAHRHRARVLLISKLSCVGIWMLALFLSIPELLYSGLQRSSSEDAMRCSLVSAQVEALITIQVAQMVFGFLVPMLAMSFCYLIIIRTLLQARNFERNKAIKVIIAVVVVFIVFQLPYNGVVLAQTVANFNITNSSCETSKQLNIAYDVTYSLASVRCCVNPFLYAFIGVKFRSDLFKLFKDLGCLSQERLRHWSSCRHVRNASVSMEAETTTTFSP

Measured: binding result

B1: antibody 6B4.1 (antibody, V domains shown)
VH: QVQLVESGGGVVQPGRSLRLSCAASGFTFSSYGMHWVRQAPGKGLEWVAVIWYDGSKKYYADSVKGRFTISRDNSKNTLYLQMNRLRAEDTAVYYCARDGGIAVFLQDNWFDPWGQGTLVTVSS
VL: SYELTQPPSVSVSPGQRARITCSGDKLGDKYASWYQQKPGQSPLLVIYQDSKRPSGIPERFSGSNSGNTATLTISGTQAMDEADYYCQAWGSSTVIFGGGTKLTVLG
notes: Human antibody from XenoMouse hybridoma; Light = 2 and heavy = 42 is inferred from the order of the listing (light chains first)
binds: [1] | [2] | [3] | [4] | [5] | [6] | [7]

B2: antibody 6B5.1 (antibody, human IgG2, lambda, V domains shown)
VH: QVQLVESGGGVVQPGRSLRLSCAASGFTFRSYGMHWVRQAPGKGLEWVAVIWYDGSKKYYADSVKGRFTISRDNSKNTLYLQMNRLRAEDTAVYYCARDGGIAVFLEDNWFDPWGQGTLVTVSS
VL: SYELTQPPSVSVSPGQRASITCSGDKLGDKYASWYQQKPGQSPLLVIYQDGKRPSGIPERFSGSNSGNTATLTISGTQAMDEADYYCQAWGSSTVIFGGGTKLTVLG
notes: Human antibody from XenoMouse hybridoma; Light = 18 and heavy = 50 is inferred from the order of the listing
binds: [1] | [2] | [3] | [4] | [5] | [6] | [7]
